Experiment [1] addresses human ether-à-go-go-related gene potassium channel 1 (hERG), stable HEK 293 cell line (human) (UniProt Q12809).
In experiment [2] the target is human ether-à-go-go-related gene potassium channel 1 (hERG), wild type, in Xenopus laevis oocytes (human) (UniProt Q12809).
The target is the same in experiment [3]. The experiment can be described thus: two-electrode voltage clamp (fraction of uninhibited tail currents). A general note: Two-electrode voltage clamp holds a large cell at a set potential and records current.

For the substance “recombinant APETx1 (wild type) (peptide)”, in experiment [1], the toxin-induced shift of the half-maximal activation voltage (ΔV1/2) of hERG, whole-cell patch clamp, APETx1 0.1-10 μM; value at 10 μM stood at 23.9 mV. Further, the toxin-induced shift of the half-maximal activation voltage (ΔV1/2) of hERG, TEVC recordings in oocytes, APETx1 0.1-10 μM; value at 10 μM in experiment [2] was found to be 21.9 mV. Also, in experiment [3], the apparent Kd, model (A): four equivalent and independent binding sites per channel, fractional toxin-sensitive current is 1.2 µM; the apparent Kd, model (B): four equivalent and independent binding sites per channel, fully toxin-sensitive current turned out to be 1.7 µM; the apparent Kd, model (C): one binding site per channel, fractional toxin-sensitive current worked out at 0.23 µM.

Values taken from PMC7791793.
